Measured values: patent US20210395344A1 (TWIST BIOSCIENCE, published 2021)
Numbering of substitutions follows the chain as printed.

B1: SARS-CoV-2 variant 1-42 (antibody, V domains shown)
VH: EVQLLESGGGLVQPGGSLRLSCAASGVTFSSYAMSWVRQAPGKGLEWVSAITGSGGSTYYADSVKGRFTISRDNSKNTLYLQMNSLRAEDTAVYYCAKHGSGTIFGVVIAKYYFDYWGQGTLVTVSS
VL: QSALTQPASVSGSPGQSITISCTGTSSDVGRYNLVSWYQQHPGKAPKLMIYEGGKRPSGVSNRFSGSKSGNTASLTISGLQAEDEADYYCCSYASSSTLVFGGGTKLTVL
B2: SARS-CoV-2 variant 1-29 (antibody, V domains shown)
VH: EVQLLESGGGLVQPGGSLRLSCAASGFTFSSYAMYWVRQAPGKGLEWVSAISGSAGSTYYADSVKGRFTISRDNSKNTLYLQMNSLRAEDTAVYYCARDTNDFWSGYSIFDPWGQGTLVTVSS
VL: B1 VL with V29I, R31S, G54T, S95G, S97R, L99Y
B3: SARS-CoV-2 variant 1-17 (antibody, V domains shown)
VH: B2 VH
VL: B1 VL with V29I, R31S, G54T, S95G, S97R, L99Y
B4: SARS-CoV-2 variant 1-22 (antibody, V domains shown)
VH: EVQLLESGGGLVQPGGSLRLSCAASGFTFSSYAMNWVRQAPGKGLEWVSIISGSGGSTYYADSVKGRFTISRDNSKNTLYLQMNSLRAEDTAVYYCAREGYRDYLWYFDLWGQGTLVTVSS
VL: QSALTQPASVSGSPGQSITISCTGTSTDVGSYNLVSWYQQHPGKAPKLMIYEGSQRPSGVSNRFSGSKSGNTASLTISGLQAEDEADYYCCSYAGSSTVFGGGTKLTVL
B5: SARS-CoV-2 variant 1-21 (antibody, V domains shown)
VH: B4 VH with A33T, N35S
VL: QSALTQPASVSGSPGQSITISCTGTSSDVGSNNLVSWYQQHPGKAPKLMIYEGNKRPSGVSNRFSGSKSGNTASLTISGLQAEDEADYYCCSYAGSVVFGGGTKLTVL
B6: SARS-CoV-2 variant 1-24 (antibody, V domains shown)
VH: B4 VH
VL: B4 VL with T27S, S31Y, S54N, Q55K, S96G, T98V
B7: SARS-CoV-2 variant 1-23 (antibody, V domains shown)
VH: B4 VH with M34I, N35S
VL: B4 VL with T27N, S54N, Q55K, S97Y
B8: SARS-CoV-2 variant 1-10 (antibody, V domains shown)
VH: EVQLLESGGGLVQPGGSLRLSCAASGFTFSSYDMSWVRQAPGKGLEWVSVISGSGGSTYYADSVKGRFTISRDNSKNTLYLQMNSLRAEDTAVYYCAKGPLVGWYFDLWGQGTLVTVSS
VL: QSALTQPASVSGSPGQSITISCTGTSSNVGSYNLVSWYQQHPGKAPKLMIYEGTKRPSGVSNRFSGSKSGNTASLTISGLQAEDEADYYCCSYAGSSSFVVFGGGTKLTVL
B9: SARS-CoV-2 variant 1-8 (antibody, V domains shown)
VH: B8 VH
VL: B1 VL with S27N, R31S, G54S, S95G, S97R, T98Y, L99V
B10: SARS-CoV-2 variant 1-47 (antibody, V domains shown)
VH: EVQLLESGGGLVQPGGSLRLSCAASGFTFSSQAMSWVRQAPGKGLEWVSAISGSGGGTYYADSVKGRFTISRDNSKNTLYLQMNSLRAEDTAVYYCAKDRRFGEFDPWGQGTLVTVSS
VL: B8 VL with N28G, T54I
B11: SARS-CoV-2 variant 1-27 (antibody, V domains shown)
VH: EVQLLESGGGLVQPGGSLRLSCAASGFTFSSYAMTWVRQAPGKGLEWVSAISGSGGGTYYADSVKGRFTISRDNSKNTLYLQMNSLRAEDTAVYYCASSSSWQFDYWGQGTLVTVSS
VL: B8 VL with N28Y, S31H, T54S, K55R, S97Y, S98T, F99H, V100Y
B12: SARS-CoV-2 variant 1-7 (antibody, V domains shown)
VH: B8 VH
VL: B8 VL with N28D, V29F, T54N, S98T
B13: SARS-CoV-2 variant 1-9 (antibody, V domains shown)
VH: B8 VH
VL: B8 VL with N28D, S31D, T54S, K55N
B14: SARS-CoV-2 variant 1-28 (antibody, V domains shown)
VH: B11 VH with A33G, T35S
VL: B8 VL with N28G, T54S, K55Q, S98T, F99H, V100Y
B15: SARS-CoV-2 variant 1-33 (antibody, V domains shown)
VH: EVQLLESGGGLVQPGGSLRLSCAASGFTFSSYAMIWVRQAPGKGLEWVSAISGSGGSTFYADSVKGRFTISRDNSKNTLYLQMNSLRAEDTAVYYCTRPPYGDYGDYWGQGTLVTVSS
VL: B8 VL with N28D, V35L, G53A, T54S, S97R, S98T, F99P
B16: SARS-CoV-2 variant 1-32 (antibody, V domains shown)
VH: B15 VH with I35Y
VL: QSALTQPASVSGSPGQSITISCTGTSSDVGGYNLVSWYQQHPGKAPKLMIYEGNKRPSGVSNRFSGSKSGNTASLTISGLQAEDEADYYCCSYAGSSTFPVVFGGGTKLTVL

biological target: T1, SARS-CoV-2 S1 (subunit 1) protein (SARS-CoV-2, UniProt P0DTC2 16-685); assay: phage ELISA
T1 construct: also called biotinylated SARS-CoV-2 S1

First: B1
Second: B2
The “screening ELISA (Avg), fold over background” value (shortened to “screening ELISA (Avg), fold”) of the first is higher: 34.5 fold over background for the first, 23.8 fold over background for the second.

First: B3
Second: B4
The “screening ELISA (Avg), fold” value of the first is lower: 27.4 fold over background for the first, 40.6 fold over background for the second.

Compared with B5, B6 is lower in “screening ELISA (Avg), fold” value: 47.6 fold over background for the first, 32.9 fold over background for the second.

Compared with B7, B8 is lower in “screening ELISA (Avg), fold” value: 23.1 fold over background for the first, 16.9 fold over background for the second.

Compared with B9, B10 is higher in “screening ELISA (Avg), fold” value: 19.3 fold over background for the first, 22.6 fold over background for the second.

First: B11
Second: B12
The “screening ELISA (Avg), fold” value of the first is higher: 27.2 fold over background for the first, 22.5 fold over background for the second.

Going from B13 to B14, the “screening ELISA (Avg), fold” value falls from 18.5 fold over background to 17.7 fold over background.

First: B15
Second: B16
The “screening ELISA (Avg), fold” value of the first is lower: 17.6 fold over background for the first, 17.9 fold over background for the second.

biological target: T2, COVID S1 RBD Fc fusion (Antigen 1) (SARS-CoV-2, UniProt P0DTC2 319-541); assay: phage ELISA
T2 construct: domain: RBD

Going from B1 to B3, the “specificity ELISA, fold over background” value falls from 20.8 fold over background to 20.1 fold over background.

First: B4
Second: B5
The “specificity ELISA, fold over background” value of the first is higher: 26.5 fold over background for the first, 14.8 fold over background for the second.

Going from B6 to B7, the “specificity ELISA, fold over background” value falls from 11 fold over background to 3.6 fold over background.

First: B8
Second: B9
The “specificity ELISA, fold over background” value of the first is higher: 17.4 fold over background for the first, 11.2 fold over background for the second.

Going from B10 to B12, the “specificity ELISA, fold over background” value falls from 5.5 fold over background to 3.3 fold over background.

In the case of B13, the “specificity ELISA, fold over background” value is reported as 9.8 fold over background.

First: B1
Second: B3
The “specificity ELISA, percent binding relative to Acro S1” value of the first is higher: 91.4% for the first, 79.8% for the second.

Compared with B4, B5 is lower in “specificity ELISA, percent binding relative to Acro S1” value: 81.2% for the first, 75.7% for the second.

Compared with B6, B7 is lower in “specificity ELISA, percent binding relative to Acro S1” value: 85.4% for the first, 70.9% for the second.

Going from B8 to B9, the “specificity ELISA, percent binding relative to Acro S1” value falls from 100% to 92.9%.

Going from B10 to B12, the “specificity ELISA, percent binding relative to Acro S1” value falls from 68.9% to 48.7%.

For B13, the “specificity ELISA, percent binding relative to Acro S1” value was 91.1%.

biological target: S1-Fc (SARS-CoV-2, UniProt P0DTC2 16-685); assay: phage ELISA

Going from B2 to B7, the “specificity ELISA, fold over background” value rises from 1 fold over background to 1.6 fold over background.

Compared with B11, B14 is lower in “specificity ELISA, fold over background” value: 1.3 fold over background for the first, 1.1 fold over background for the second.

Going from B15 to B16, the “specificity ELISA, fold over background” value rises from 3 fold over background to 4 fold over background.

Compared with B2, B7 is lower in “specificity ELISA, percent binding relative to Acro S1” value: 94% for the first, 31.1% for the second.

First: B11
Second: B14
The “specificity ELISA, percent binding relative to Acro S1” value of the first is lower: 84.8% for the first, 110% for the second.

Going from B15 to B16, the “specificity ELISA, percent binding relative to Acro S1” value falls from 42.1% to 35.3%.

biological target: T3, COVID S1 RBM Fc fusion (Antigen 2) (SARS-CoV-2, UniProt P0DTC2 437-508); assay: phage ELISA
T3 construct: domain: RBM

Compared with B1, B2 is lower in “specificity ELISA, fold over background” value: 1 fold over background for the first, 0.9 fold over background for the second.

First: B3
Second: B4
The “specificity ELISA, fold over background” value of the first is lower: 1.3 fold over background for the first, 1.5 fold over background for the second.

Going from B5 to B6, the “specificity ELISA, fold over background” value falls from 1.4 fold over background to 1.3 fold over background.

First: B7
Second: B8
The “specificity ELISA, fold over background” value of the first is higher: 1.6 fold over background for the first, 1.1 fold over background for the second.

Going from B9 to B10, the “specificity ELISA, fold over background” value falls from 1.2 fold over background to 0.9 fold over background.

B11 and B12 are the same in “specificity ELISA, fold over background” value: 1.6 fold over background for the first, 1.6 fold over background for the second.

First: B13
Second: B14
The “specificity ELISA, fold over background” value of the first is lower: 1 fold over background for the first, 1.2 fold over background for the second.

First: B15
Second: B16
The “specificity ELISA, fold over background” value of the first is lower: 1 fold over background for the first, 1.1 fold over background for the second.

Going from B1 to B2, the “specificity ELISA, percent binding relative to Acro S1” value rises from 4.2% to 78.3%.

Going from B3 to B4, the “specificity ELISA, percent binding relative to Acro S1” value falls from 5.2% to 4.7%.

Compared with B5, B6 is higher in “specificity ELISA, percent binding relative to Acro S1” value: 7% for the first, 10.3% for the second.

First: B7
Second: B8
The “specificity ELISA, percent binding relative to Acro S1” value of the first is higher: 32% for the first, 6.2% for the second.

First: B9
Second: B10
The “specificity ELISA, percent binding relative to Acro S1” value of the first is lower: 10.3% for the first, 11.1% for the second.

Compared with B11, B12 is lower in “specificity ELISA, percent binding relative to Acro S1” value: 109% for the first, 23% for the second.

Going from B13 to B14, the “specificity ELISA, percent binding relative to Acro S1” value rises from 9.3% to 124%.

Compared with B15, B16 is lower in “specificity ELISA, percent binding relative to Acro S1” value: 14.6% for the first, 9.5% for the second.
